Source: patent publication US20210261671A1 (HARPOON THERAPEUTICS, published 2021)

Key:
human FLT3 protein [1] = molecular target: T1, human FLT3 protein (human, UniProt P36888 27-541, limits assumed); assay: colorimetric ELISA, signal over control wells lacking FLT3
T1 construct: protein coated in the screening ELISA; also called ELISA FLT3
Text: (§1) Llamas were immunized with purified FLT3 protein expressed in Expi293 cells. A phage display library for expression of heavy variable antibody domains was constructed from circulating B cells isolated from the immunized llamas (See van der Linden, de Geus, Stok, Bos, van Wassenaar, Verrips, and Frenken. 2000. J Immunol Methods 240:185-195). Phage clones were screened for binding to FLT3 by expressing llama anti-FLT3 proteins in E. coli, preparing periplasmic extracts, and performing colorimetric ELISAs.

human FLT3 protein [2] = molecular target: T1, human FLT3 protein; assay: colorimetric ELISA, periplasmic extract
Text: as §1

Binder	FLT3/control (human FLT3 protein [1]) [ratio]	ELISA FLT3 (absorbance) (human FLT3 protein [2])
FLL15 (VHH, llama anti-FLT3 variable domain; E. coli periplasmic extract) VHH: QVQLQESGGGLVQAGGSLSLSCAASEGTISHAAMGWFRQAPGKERQFVAYDTWTGGSTNYADSVKDRFTITGDHAKNTVYLQMNSLKPEDTGVYYCAVRGRYSASYTYTNPASYKYWGQGTQVTVSS	31	2.5
FLL125 (VHH, llama anti-FLT3 variable domain; E. coli periplasmic extract) VHH: QVQLQESGGGLVQAGGSLRLSCAASGSTFSRNYIDWYRQAPGKQREWVAQITSGGNTHYEPSLKGRFTISRDNAKNTAYLQMNSLKPEDTAVYYCRILDYWGQGTQVTVSS	17	2.1
FLL21 (VHH, llama anti-FLT3 variable domain; E. coli periplasmic extract) VHH: QVQLQESGGGLVQPGGSLTLSCAASGSTFSRNYIDWYRQAPGKQREWVAQITSGGNTHYEPSLKGRFTISRDNAKNTAYLQMNSLKPEDTAVYYCRILDYWGQGTQVTVSS	20	3.3
FLL55 (VHH, llama anti-FLT3 variable domain; E. coli periplasmic extract) VHH: QVQLQESGGGLVQAGGSLRLSCAASGSTFSRNYIDWYRQAPGKQREWVAQITSAGNTHYEPSLKGRFTISRDNAKNTAYLQMNSLKPEDTAVYYCRILDYWGQGTQVTVSS	6	2
FLL45 (VHH, llama anti-FLT3 variable domain; E. coli periplasmic extract) VHH: QVQLQESGGGLVQAGGSLRLSCAASGGTFSSSAMGWFRQAPGKEREFVATITQNDVPTYYTHSVKGRFTISRDNAKNTMYLQMNSLKPEDTAVYYCAQRVAQASGWRTTIKDYGYWGQGTQVTVSS	28	4
FLL160 (VHH, llama anti-FLT3 variable domain; E. coli periplasmic extract) VHH: QVQLQESGGGLVQAGDSLRLSCATSGRTFNLYRVGWFRQAPGKEREFVARITWSADITQYADSVKGRFTISRDNAKNTVYLQMNSLKPEDTAIYYCATTLRKSSGIYHVDDYDDWGQGTQVTVSS	9	0.7
FLL178 (VHH, llama anti-FLT3 variable domain; E. coli periplasmic extract) VHH: QVQLQESGGGLVQPGGSLRLSCAASGFTFSDYAMSWVRQAPGKGLEWVSGISSGGYKIGYTDSTKGRFTISRDNAKNTLYLQMNSLTAEDTAVYYCAKGTQWSWSLRDNTSRGQGTQVTVSS	48	4
FLL27 (VHH, llama anti-FLT3 variable domain; E. coli periplasmic extract) VHH: QVQLQESGGGLVQPGGSLRLSCKASGFTFSSYAMSWVRQAPGKGLEWVSGISSGGYKIGYTDSTKGRFTISRDNAKNTLYLQMNSLNAEDTAVYYCAKGTQWSWALRDSTSRGQGTQVTVSS	10	4
FLL39 (VHH, llama anti-FLT3 variable domain; E. coli periplasmic extract) VHH: QVQLQESGGGLVQAGGSLRLSCAASGLTSSTYRMAWFRQAPGKEREFAAGISYSADSGGSTNYADSVKGRFTISRDNAKNTVYLQMSSLKPEDTAVYYCAAGRYSGTYNSPYSSSYVYWGQGTQVTVSS	12	1.9
FLL154 (VHH, llama anti-FLT3 variable domain; E. coli periplasmic extract) VHH: QVQLQESGGGLVQAGGSLRLSCAVSGRTFSGFGTGWFRQAPGKEREFVAAISWSGGRTHYADSVKGRFTISRDNAKNTVYLQMNSLKPEDTAVYYCAGQVARAYDGNWYSRGDYWGQGTQVTVSS	8	4
FLL6 (VHH, llama anti-FLT3 variable domain; E. coli periplasmic extract) VHH: QVQLQESGGGLVQAGGSLRLSCAVSGRTFSGFGTGWFRQAPGKEREFVAAISWDGGRTHYADSVKGRFTISRDNAANTVYLQMNSLKPEDTAVYYCAGQVSRAYDSMWYGRDDYWGQGTQVTVSS	16	3.8
FLL38 (VHH, llama anti-FLT3 variable domain; E. coli periplasmic extract) VHH: QVQLQESGGGLVQAGGSLRLSCAVSGRTFSGFGTGWFRQAPGKEREFVAAVSWSGGTTEIADSVKGRFTISRDNAKNTVYLQMSSLKPGDTAVYYCAGQVARAYDSRWYSRGDYWGQGTQVTVSS	45	4
FLL190 (VHH, llama anti-FLT3 variable domain; E. coli periplasmic extract) VHH: QVQLQESGGGLVQAGGSLTLSCTASGSTFSINHFSWYRQAPGKQRELVAFISSDGVSIDVESVKGRFTISGDNDKNTAYLQMNGLKPEDTAVYYCYYRGFWGQGTQVTVSS	43	4
FLL43 (VHH, llama anti-FLT3 variable domain; E. coli periplasmic extract) VHH: QVQLQESGGGLVQPGGSLTLSCTASGSTFSINHFAWYRQAPGKQRELVAFISSDGRSTDVESVKGRFTISGDNDKNTAYLQMNGLKPEDTAVYYCYYRGSWGQGTQVTVSS	12	2

The remaining lines, values ahead:

FLT3/control (human FLT3 protein [1]) [ratio]	ELISA FLT3 (absorbance) (human FLT3 protein [2])	Binder
4	0.6	FLL79 (VHH, llama anti-FLT3 variable domain; E. coli periplasmic extract) VHH: QVQLQESGGGLVQAGGSLRLSCSASGSTFSRNYIDWYRQAPGKQREWVAQITSGGNTHYEPSLKGRFTISRDNAKNTAYLQMNSLKPEDTAVYYCRILDYWGQGTQVTVSS
9	1.4	FLL57 (VHH, llama anti-FLT3 variable domain; E. coli periplasmic extract) VHH: QVQLQESGGGLVQAGGSLRLSCAASGSTFSKNYIDWYRQAPGKQREWVAQITSGGNTHYEPSLKGRFTISRDNAKNTAYLQMNSLKPEDTAVYYCRILDYWGQGTQVTVSS
15	1.9	FLL86 (VHH, llama anti-FLT3 variable domain; E. coli periplasmic extract) VHH: QVQLQESGGGLVQPGDPLRLSCAASGSTFSRNYIDWYRQAPGKQREWVAQITSGGNTHYEPSLKGRFTISRDNAKNTAYLQMNSLKPEDTAVYYCRILDYWGQGTQVTVSS
5	0.5	FLL62 (VHH, llama anti-FLT3 variable domain; E. coli periplasmic extract) VHH: QVQLQESGGGLVQAGGSLRLSCAASGSTSSRNYIDWYRQAPGKQREWVAQITSGGNTHYEPSLKGRFTISRDNAKNTAYLQMNSLKPEDTAVYYCRILDYWGQGTQVTVSS
17	2.1	FLL158 (VHH, llama anti-FLT3 variable domain; E. coli periplasmic extract) VHH: QVQLQESGGGLVQPGGSLRLSCAASGSTFGRNYIDWYRQAPGKQREWVAQITSGGNTHYEPSLKGRFTISRDNAKNTAYLQMNSLKPEDTAVYYCRILDYWGQGTQVTVSS
4	3.6	FLL823 (VHH, llama anti-FLT3 variable domain; E. coli periplasmic extract) VHH: QVQLQESGGGVVQVGGSLRLSCAASGGTFGYYAVGWFRQAPGKEREFVAAVTWNGAYLYSDPVKGRFTISRDNAKNTVYLQMNSLKSEDTAVYYCGLDRWSAVVESTPSTRGQGTQVTVSS
54	4	FLL177 (VHH, llama anti-FLT3 variable domain; E. coli periplasmic extract) VHH: QVQLQESGGGLVQTGGSLRLSCAASGSTFSRNTMGWFRQAPGKERVFVLGISWSGIRSYYLDSAKARFTISRDNAKNTVYLQMNSLRPEDTAVYYCAAQEGSSPGPYKYWGQGTQVTVSS
5	0.5	FLL76 (VHH, llama anti-FLT3 variable domain; E. coli periplasmic extract) VHH: QVQLQESGGGLVQAGGSLRLSCAASGGAFSSYVMGWFRQAPGKEREFVAAVISWSGRITDYADSVKGRFSISRDNAKSTVYLQMNNLKPEDTAVYYCAAKTGMYIDLRTSTFDYWGQGTQVTVSS
6	0.5	FLL173 (VHH, llama anti-FLT3 variable domain; E. coli periplasmic extract) VHH: QVQLQESGGGLVQAGGSLRLSCATSGRTFNLYRVGWFRQAPGKEREFVARITWSADITQYTDSVKGRFTISRDNAKNTVYLQMNSLKPEDTAIYYCATTLRKSSGIYHTDDYDYWGQGTQVTVSS
6	3.9	FLL74 (VHH, llama anti-FLT3 variable domain; E. coli periplasmic extract) VHH: QVQLQESGGGLVQAGGSLRLSCRFSGRTFSGFGTGWFRQAPGKEREFVAAISWAGGRTHYEDSVKGRFTISRDNAKNTVYLQMNSLKPEDTAVYYCAVQVSRAYDGIWYSGGDYWGQGTQVTVSS
13	3.7	FLL99 (VHH, llama anti-FLT3 variable domain; E. coli periplasmic extract) VHH: QVQLQESGGGLVQAGGSLRLSCAVSGRTFSGFGTGWFRQAPGKEREFVAAISWDGGRTHYADFVKGRFTISRDNAKNTVYLQMNSLKPEDTAVYYCAAQVARAYDSRWYSGGDYWGQGTQVTVSS
5	4	FLL94 (VHH, llama anti-FLT3 variable domain; E. coli periplasmic extract) VHH: QVQLQESGGGLVQAGGSLRLSCAVSGRTFSGFGTGWFRQAPEKEREFVAAISWDGGRTHYADSVKGRFTISRDNAKNTVYLQMNSLKPEDTAIYYCAGQVARAYDTRWYSRGDYWGQGTQVTVSS
35	3.8	FLL83 (VHH, llama anti-FLT3 variable domain; E. coli periplasmic extract) VHH: QVQLQESGGGLVQAGGSLRLSCAVSGRTFSGFGTGWFRQAPGKEREFVAAISWSGGTTHYADSVKGRFTISRDNAENTVYLEMNSLKPEDTAVYICAGQVSRAYDSNWYSRDDYWGQGTQVTVSS
34	3.6	FLL112 (VHH, llama anti-FLT3 variable domain; E. coli periplasmic extract) VHH: QVQLQESGGGLVQAGGSLRLSCAVSGRTFSGFGTGWFRQAPGKEREFVAAISWAGGRTHYEDSVKGRFTIHRDNAKNTVYLQMNSLKPEDTAVYYCAAQVSRAYDGIWYSGGDYWGQGTQVTVSS
17	4	FLL822 (VHH, llama anti-FLT3 variable domain; E. coli periplasmic extract) VHH: QVQLQESGGGSVQAGGSLRLSCTASGRTFTDYTMGWFRQAPGKEREFMLGISSNGYRRYYTGSMKDRFTISRDNVKKTVYLQMNDLKPEDTAVYYCAASEDHGAPRYDYWGQGTQVTVSS
